Measurements from PMC4193804.

Columns and labels:
[1] = biological target: HLA-DQ1 (DQA1*0102, DQB1*0502), supplied as DQ1/CLIP for peptide-binding assays (human); assay: ELISA
[2] = biological target: HLA-DQ1 (DQA1*0102, DQB1*0502) loaded with the myelin basic protein peptide (res. 85–99) (human); assay: SPR
[3] = biological target: Hy.1B11 TCR with biotinylated C-terminal BirA tag (human); assay: SPR

| Substance | Kd [3] | also measured |
| --- | --- | --- |
| MBP 85–99 analogue peptide with P6 Asn to Asp substitution |  | fold higher affinity than the WT MBP peptide [1]: 10 fold |
| Hy.1B11 T cell receptor (TCR), wild type, soluble |  | Kd [2]: 14.3 µM |
| HLA-DQ1 (DQA1*0102, DQB1*0502) loaded with the myelin basic protein peptide (res. 85–99) (peptide-MHC) | 6.96 µM |  |
| HLA-DQ1 (DQA1*0102, DQB1*0502) loaded with the Pseudomonas aeruginosa phosphomannomutase peptide PMM 260–274 (from UniProt P26276 260-274) (peptide-MHC) | 57.3 µM |  |
